Data taken from the supplement of paper PMC10567573.
± gives the standard deviation.

Assay: protein stability index of a GFP-peptide fusion (GPS, HEK-293T) (PSI 1-6); higher = more stable
Details: c terminus: a fixed tail appended
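Further: 24-mer peptide tiles fused after GFP, lentivirally expressed, FACS-sorted into six equal bins by GFP/DsRed ratio, decoded by Illumina sequencing, PSI is the read-weighted mean bin number.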

Sequence | protein stability index (treatment: DMSO) | protein stability index (treatment: MLN4924 1 uM, 8 h)
PASGASSIKPEASQMPPPAGGTSD [SCNN1D] | 5.43 ± 0.14 | 5.45 ± 0.19
PDLESGSESGADTISVNQTRVNLS [DLC1] | 5.12 ± 0.26 | 5.16 ± 0.2
PDLLPTDYRKQLQYPNPLPVLSGA [VPS39] | 3.34 ± 0.4 | 3.43 ± 0.14
PDPLNICVFILLLVFIVVKCFTSE [RTP4] | 2.97 ± 1.2 | 2.72 ± 0.81
PDRASGPEGSLSQTMAGSSPNTPQ [FAM104A] | 5.3 ± 0.21 | 5.34 ± 0.2
PEEKKEEEGSANRRPEDQELESLS [CHGA] | 5.58 ± 0.34 | 5.71 ± 0.12
PEGGMEQALAGASSGRELGRPKEL [ZNF263] | 4.92 ± 0.11 | 5.29 ± 0.17
PESADTGDKSESPDEANVGKHPKD [TOR1AIP2] | 5.57 ± 0.14 | 5.601 ± 0.053
PETLPESSLFSVEANSSNSQKNEK [C8orf76] | 5.54 ± 0.14 | 5.41 ± 0.4
PETVMTTLYTAKKYAVPALEAHCV [BTBD1] | 2.7 ± 0.13 | 2.83 ± 0.15
PEVVQHEEFILLSQGEVEKLIKCD [KLHL12] | 3.99 ± 0.4 | 3.86 ± 0.75
PFLLLFLGNFFTTLRVVHHKFHSQ [TMEM120A] | 3.28 ± 0.37 | 3.1 ± 0.22
PGESLECPAELRPQVPQPPSPAAV [TRAF3IP2] | 5.31 ± 0.077 | 5.18 ± 0.43
PGKLFIGGLNRETNEKMLKAVFGK [RBMY1A1] | 2.69 ± 0.12 | 2.86 ± 0.14
PGLGQESKAPGSCDPGTDPCPEDA [TLE6] | 5.65 ± 0.27 | 5.55 ± 0.22
PGSGPGHGSGSHPGPASGPGPDTG [SPAG8] | 5.36 ± 0.16 | 5.34 ± 0.069
PHAPPFAGGHPAQLGLGRGASTFK [JUNB] | 4.11 ± 0.083 | 4.34 ± 0.066
PIGILTTSYCELLQNKVPLLGSST [PPTC7] | 2.63 ± 0.53 | 2.66 ± 0.47
PKPADFRNPGPGRHRLITQVYLSH [INTS4] | 2.59 ± 0.17 | 2.57 ± 0.24
PKRLRCWEEEEDHEKERPEHKSLE [FANCE] | 5.32 ± 0.17 | 5.37 ± 0.33
PKSLVRLSLEAVICFKEMLANSWN [KLHDC2] | 2.41 ± 0.65 | 2.49 ± 0.3
PLELMRTKLQAQHVSYRELGACVR [SLC25A39] | 2.67 ± 0.24 | 2.92 ± 0.16

Sequence | protein stability index (treatment: DMSO) | protein stability index (treatment: MLN4924 1 uM, 8 h)
PLKLHYQLRNVRERLAKNLVEKGV [GOLPH3] | 2.4 ± 0.15 | 2.7 ± 0.3
PLLLFTYLNSFLHQRIPQSVRILG [SLC29A1] | 2.96 ± 0.54 | 2.97 ± 0.54
PLPGKAFLRQLPFRGDDGIFDDNF [SNX3] | 3.47 ± 0.23 | 3.41 ± 0.47
PNTYYEGGYFKARLKFPIDYPYSP [CDC34] | 2.32 ± 0.17 | 2.39 ± 0.21
PNVIEYYENFLEDKALMIAMEYAP [NEK8] | 2.32 ± 0.21 | 2.25 ± 0.21
PPGGSGSEPYKLLPGAVATIVKPL [HNF4A] | 3.59 ± 0.11 | 3.58 ± 0.18
PPPPPNEINPPPHTMEEEEDDDWG [EIF5] | 5.48 ± 0.17 | 5.61 ± 0.22
PPRIPQADQWKSSNKSLVEALGLE [RHOBTB1] | 4.45 ± 0.27 | 4.33 ± 0.26
PPSSGNGPAPPPLPPALVPAGGLA [WAS] | 4.66 ± 0.47 | 4.67 ± 0.29
PPVWYLKEEDHYQRARKEREKEDY [RHOBTB2] | 5.16 ± 0.12 | 5.22 ± 0.16
PRASISHVTCVDQSEHTMVLRCQL [C2CD2L] | 2.34 ± 0.26 | 2.26 ± 0.28
PRIWSLAHTATASAVEGAPPARPR [IRX6] | 4.44 ± 0.26 | 4.43 ± 0.11
PRPRRAKRFASLSRFVETLVVADD [ADAMTS4] | 3.65 ± 0.45 | 3.69 ± 0.12
PSGSLENGTKADGKDAKTTNGHGG [TRIM29] | 5.26 ± 0.45 | 5.58 ± 0.35
PSRREPPPRRSRSRSHDRLPYQRR [CLK3] | 5.23 ± 0.19 | 5.23 ± 0.14
PSSSGHLADSDTLSSAEENEPSQA [C18orf25] | 5.56 ± 0.22 | 5.52 ± 0.11
PSVKYLSHPRVQSGCDKEALLTGG [RNF180] | 3.99 ± 0.28 | 4.04 ± 0.29
PVPPGWNPNSSSGKGSGGNAGSYI [DLX1] | 3.86 ± 0.21 | 3.93 ± 0.24
PYFRAMFTGELAESRQTEVVIRDI [KLHL20] | 2.77 ± 0.25 | 3.09 ± 0.19
PYKREEEALEERRLSRGEIPTLQR [PKD2L1] | 4.76 ± 0.31 | 4.82 ± 0.27
QAAVAAGDVHTVRKMLEQGYSPNG [ASB7] | 4.09 ± 0.31 | 4.11 ± 0.12
QALRENTYPFLAMIMLKDRRMTVV [FAF2] | 2.23 ± 0.31 | 1.96 ± 0.21

Sequence | protein stability index (treatment: DMSO) | protein stability index (treatment: MLN4924 1 uM, 8 h)
QAPPADFIPAHVAFDKKVLKFDAY [EFHC1] | 3.01 ± 0.38 | 2.98 ± 0.28
QDAPLSDCTETIEGLELTEQTFSP [ADD1] | 5.46 ± 0.21 | 5.3 ± 0.23
QDDHDHKVQELMSTHELEKKELEE [MTUS2] | 5.59 ± 0.29 | 5.59 ± 0.33
QDLCCRTIVSCTPVHLVDKLPLPS [RAB40A] | 2.34 ± 0.26 | 2.39 ± 0.35
QDTELPKAEECDTITLNCPRNSDM [EDARADD] | 5.32 ± 0.29 | 5.42 ± 0.27
QEGAASKVLGRLRALSDTTEELTV [SLC2A12] | 4.46 ± 0.31 | 4.65 ± 0.37
QEGWIHHLARHAVACFLTRGDLWI [CRY1] | 3.05 ± 0.48 | 2.89 ± 0.44
QEVTEPAVVAVDRQAIFPDTWTLT [PXN] | 4.06 ± 0.23 | 3.8 ± 0.36
QFLKELLLKPHSYGRFIRWLNKEK [SPDEF] | 2.28 ± 0.43 | 2.21 ± 0.25
QFTKPNASLGDVQSGATISMPCST [SASS6] | 4.14 ± 0.38 | 4.06 ± 0.69
QGASESQAPGEENLLGEAAGGQDM [HDAC6] | 5.54 ± 0.22 | 5.45 ± 0.2
QGHPPSLFPPKAKSNQPKSLEDLI [ATE1] | 4.25 ± 0.081 | 4.19 ± 0.16
QGTAEEDHVDLSLSCTLVPRSGEQ [CDKN1A] | 5.19 ± 0.12 | 5.2 ± 0.28
QHTPDQANSDRASIGRRRTELRRS [PLEKHN1] | 4.95 ± 0.38 | 5.34 ± 0.19
QIAQLEASLAAAKKQLADETLLKV [LMNB1] | 2.72 ± 0.65 | 2.8 ± 0.46
QIHLDVDNDRTTPSDLDSTGNSLN [DLC1] | 5.19 ± 0.25 | 5.28 ± 0.18
QKAPMTTVRGLHCMCTVGERLYVI [KLHL13] | 3.21 ± 0.61 | 2.75 ± 0.52
QKDSYQPPGNVYWPLRGKREAMLE [SPAG8] | 3.58 ± 0.31 | 3.62 ± 0.41
QKLADLRSLNEEHSKQYRCLSFQP [VDR] | 3.07 ± 0.12 | 3.24 ± 0.17
QLFEDPTVDKEVEIRKKVLKIYNK [MNAT1] | 3.41 ± 0.18 | 3.5 ± 0.29
QLIVTARTTRGLDPLFGMCEKFLQ [INTS4] | 2.15 ± 0.4 | 2.06 ± 0.3
